# According to patent publication US20220177548A1 (WISTAR INSTITUTE OF ANATOMY AND BIOLOGY, published 2022):
# Biological target: HLA-A2 (on T2 cells) (human)
# Assay: T2 cell binding assay, fluorescence index by flow cytometry
row,Binder,T2 Binding (FI)
1,LMTEKSRWSG (Synthetic 10-mer) [Modified 2 (modified BRAFV600E peptide LMTEKSRWSG)],0.8 FI = (MFI peptide/MFI w/o peptide) - 1
2,LITEKSRWSG (Synthetic 10-mer) [Modified 1 (modified BRAFV600E peptide LITEKSRWSG)],1 FI = (MFI peptide/MFI w/o peptide) - 1
3,"LATEKSRWSG (Synthetic 10-mer) [Unmodified 2 (human BRAFV600E peptide LATEKSRWSG, amino acids 597-606 of BRAFV600E)]",1.1 FI = (MFI peptide/MFI w/o peptide) - 1
4,LLTEKSRWSG (Synthetic 10-mer) [Modified 3 (modified BRAFV600E peptide LLTEKSRWSG)],0.9 FI = (MFI peptide/MFI w/o peptide) - 1
5,LATEKSRWSL (Synthetic 10-mer) [Modified 6 (modified BRAFV600E peptide LATEKSRWSL)],0.6 FI = (MFI peptide/MFI w/o peptide) - 1
6,LATEKSRWSI (Synthetic 10-mer) [Modified 5 (modified BRAFV600E peptide LATEKSRWSI)],0.7 FI = (MFI peptide/MFI w/o peptide) - 1
7,LLTEKSRWSV (Synthetic 10-mer) [Modified 4 (modified BRAFV600E peptide LLTEKSRWSV)],6.5 FI = (MFI peptide/MFI w/o peptide) - 1
8,LATEKSRWSV (Synthetic 10-mer) [Modified 7 (modified BRAFV600E peptide LATEKSRWSV)],1 FI = (MFI peptide/MFI w/o peptide) - 1
